Experimental data reported in patent US20240409647A1, “BISPECIFIC BINDING PROTEINS AGAINST ALARMINS AND USES THEREOF” (SINOMAB BIOSCIENCE LIMITED, priority 2022, published 2024).
Where “and” joins values, the source holds several entries; their conditions need not be identical. Equal values may be shown once.

Key:
rhesus IL17RB = biological target: T1, rhesus IL17RB (Macaca mulatta, UniProt H9FWT9); test: ELISA, SM17 binding to coated IL-17RB protein (rhesus); design: species or system rhesus monkey; conditions: two wells
T1 construct: purchased R&D systems
T1 sequence (H9FWT9 18-502): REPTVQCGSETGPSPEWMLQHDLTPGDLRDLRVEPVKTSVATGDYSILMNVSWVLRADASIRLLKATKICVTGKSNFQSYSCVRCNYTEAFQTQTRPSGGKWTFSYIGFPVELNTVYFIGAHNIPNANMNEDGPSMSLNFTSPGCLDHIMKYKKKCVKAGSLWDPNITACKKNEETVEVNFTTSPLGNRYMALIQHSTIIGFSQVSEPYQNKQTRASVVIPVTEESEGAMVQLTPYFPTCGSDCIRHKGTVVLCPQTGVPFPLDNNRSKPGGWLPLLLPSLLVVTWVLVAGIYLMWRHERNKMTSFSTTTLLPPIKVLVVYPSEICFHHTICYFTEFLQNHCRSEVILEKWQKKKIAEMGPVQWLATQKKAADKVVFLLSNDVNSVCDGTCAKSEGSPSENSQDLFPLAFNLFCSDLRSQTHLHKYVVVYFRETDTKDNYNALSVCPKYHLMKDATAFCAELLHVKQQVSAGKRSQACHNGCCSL
Description: A standard enzyme-linked immunosorbent assay (ELISA) method was used to determine the species specificity of SM17 against IL-17RB proteins. Briefly, IL-17RB proteins from human, mouse, cynomolgus or rhesus monkey (R&D systems, Minneapolis, MN) were diluted to 2.5 μg/ml in PBS and 50 μl of IL-17RB proteins were added to each well of ELISA strip. The strips were sealed with parafilm and incubated at 4° C. overnight for coating.
On the next day, strips were washed thrice with washing buffer (0.05% Tween 20 in PBS) and blocked with 100 μl per well with blocking buffer (3% BSA in PBS) for 2 hours RT before serially diluted SM17 (at a final concentration of 10, 2, 0.4, 0.08, 0.016, 0.0032, and 0.00064 μg/ml, respectively) was added.

[1] = biological target: T2, human IL17RB expressed on HEK293 cells (Homo sapiens, UniProt Q9NRM6); test: Flow cytometry, SM17 binding to HEK293 transfected with human IL-17RB; conditions: SM17 1 μg/ml
T2 construct: transfected either with full-length human or rhesus monkey IL-17RB (SinoBiological, Beijing, China); host or cells: HEK293
T2 sequence (Q9NRM6 18-502): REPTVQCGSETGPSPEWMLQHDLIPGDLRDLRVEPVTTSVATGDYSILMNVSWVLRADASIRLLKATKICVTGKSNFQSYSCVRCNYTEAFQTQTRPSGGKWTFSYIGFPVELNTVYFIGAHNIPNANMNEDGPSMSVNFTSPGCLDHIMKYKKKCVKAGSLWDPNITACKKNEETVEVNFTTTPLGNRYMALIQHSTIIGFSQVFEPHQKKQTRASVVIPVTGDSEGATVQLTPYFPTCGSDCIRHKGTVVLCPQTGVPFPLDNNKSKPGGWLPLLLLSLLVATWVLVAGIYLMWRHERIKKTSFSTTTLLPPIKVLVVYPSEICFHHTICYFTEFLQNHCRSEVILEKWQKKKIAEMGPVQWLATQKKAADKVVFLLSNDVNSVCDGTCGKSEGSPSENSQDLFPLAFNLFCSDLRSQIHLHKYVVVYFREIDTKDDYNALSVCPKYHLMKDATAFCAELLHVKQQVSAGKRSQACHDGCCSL
Description: HEK293 cells (ATCC, Manassas, VA) transfected either with full-length human or rhesus monkey IL-17RB (SinoBiological, Beijing, China) were examined for binding to SM17 following standard protocol for flow cytometry. Wild-type HEK293 stained with IgG4 isotype control (Sino Biological) was used as the negative control and for gating purpose. Briefly, HEK293 cells at a density of 3×10^5 cells were seeded into each well of a 6-well plate. On the next day, human or rhesus Il-17RB full length cDNA were first cloned into pCMV3-untagged expression plasmid through standard molecular cloning technique, and then expression plasmids for human or rhesus IL-17RB were transfected into HEK293 cells by lipofection (Lipofectamine 3000 reagent; Thermo Fisher Scientific). Transfected cells were trypsinized, harvested, and fixed with 4% paraformaldehyde (5 minutes). SM17, or human IgG4 control at 1 μg/ml in washing buffer (3% BSA in PBS) were added to the resuspend cells for incubation at RT for 30 min before Alexa Fluor® 647-conjugated goat anti-human IgG specific antibody (1:2000 dilution in washing buffer) (Jackson ImmunoResearch) was added for flow cytometry analysis using the BD FACSVerse cell analyzer (Becton Dickenson, Franklin Lakes, NJ).

hIL17RE = biological target: T3, hIL17RE (Homo sapiens, UniProt Q8NFR9); test: ELISA, SM17 specificity against IL-17 receptor subunits (IL17RE); assay type: binding; conditions: 0.4 to 0.00064 μg/mL
T3 construct: purchased R&D systems
T3 sequence (Q8NFR9 24-667): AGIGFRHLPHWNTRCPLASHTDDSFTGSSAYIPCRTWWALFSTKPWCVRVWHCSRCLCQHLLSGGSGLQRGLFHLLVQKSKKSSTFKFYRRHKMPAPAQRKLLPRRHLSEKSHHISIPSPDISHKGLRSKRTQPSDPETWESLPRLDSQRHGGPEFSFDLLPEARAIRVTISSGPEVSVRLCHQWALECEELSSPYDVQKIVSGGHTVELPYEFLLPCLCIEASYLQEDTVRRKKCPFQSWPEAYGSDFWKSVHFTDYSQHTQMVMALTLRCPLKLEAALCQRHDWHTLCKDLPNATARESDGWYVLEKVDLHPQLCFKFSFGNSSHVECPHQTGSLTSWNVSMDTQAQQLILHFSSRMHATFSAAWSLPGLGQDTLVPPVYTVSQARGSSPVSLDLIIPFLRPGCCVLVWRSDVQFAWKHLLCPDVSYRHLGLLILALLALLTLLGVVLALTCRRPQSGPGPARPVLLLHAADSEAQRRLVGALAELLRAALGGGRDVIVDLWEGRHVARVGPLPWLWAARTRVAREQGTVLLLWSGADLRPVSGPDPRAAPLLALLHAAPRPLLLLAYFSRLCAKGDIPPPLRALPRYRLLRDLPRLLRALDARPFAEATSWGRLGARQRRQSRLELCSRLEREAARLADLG
Description: A standard ELISA method was used to determine the specificity of SM17 against other human IL17 receptor subunits. Similarly, serially diluted SM17 at different concentrations (final concentrations at 0.4, 0.08, 0.016, 0.0032 and 0.00064 μg/m, respectively) was added to the wells of ELISA plates coated either with human IL-17 receptor subunits A, C, D and E (IL17RA, IL17RC, IL17RD, and IL17RE) (R&D systems).

OD 450 nm Absorption, rhesus IL17RB (rhesus IL17RB; SM17 0.016 μg/mL): 0.27 and 0.17 | OD 450 nm Absorption, rhesus IL17RB (rhesus IL17RB; SM17 0.08 μg/mL): 0.51 and 0.58 | OD 450 nm Absorption, rhesus IL17RB (rhesus IL17RB; SM17 0.4 μg/mL): 1.12 and 1.17 | OD 450 nm Absorption, rhesus IL17RB (rhesus IL17RB; SM17 2 μg/mL): 1.40 and 1.45 | OD 450 nm Absorption, rhesus IL17RB (rhesus IL17RB; SM17 10 μg/mL): 1.57 and 1.59 | binding of SM17 to hIL17RB-HEK293 [1]: 46% | binding of SM17 to IL17RE (in words) (hIL17RE): No obvious bindings
Substance: SM17: humanized anti-IL17RB monoclonal antibody, human IgG4 isotype; HC SEQ ID NO: 32, LC SEQ ID NO: 33
